Each block holds one binder with its values, some of them ahead of it.
Assays:
canine LEPR-ECD-His = biological target: T1, canine LEPR-ECD-His (canine); assay: SPR (Biacore T200), antibody captured on Protein A/G chip, His-tagged LEPR-ECD as analyte, 1:1 fit; mean n=3, SD 2.4E-8
T1 chain: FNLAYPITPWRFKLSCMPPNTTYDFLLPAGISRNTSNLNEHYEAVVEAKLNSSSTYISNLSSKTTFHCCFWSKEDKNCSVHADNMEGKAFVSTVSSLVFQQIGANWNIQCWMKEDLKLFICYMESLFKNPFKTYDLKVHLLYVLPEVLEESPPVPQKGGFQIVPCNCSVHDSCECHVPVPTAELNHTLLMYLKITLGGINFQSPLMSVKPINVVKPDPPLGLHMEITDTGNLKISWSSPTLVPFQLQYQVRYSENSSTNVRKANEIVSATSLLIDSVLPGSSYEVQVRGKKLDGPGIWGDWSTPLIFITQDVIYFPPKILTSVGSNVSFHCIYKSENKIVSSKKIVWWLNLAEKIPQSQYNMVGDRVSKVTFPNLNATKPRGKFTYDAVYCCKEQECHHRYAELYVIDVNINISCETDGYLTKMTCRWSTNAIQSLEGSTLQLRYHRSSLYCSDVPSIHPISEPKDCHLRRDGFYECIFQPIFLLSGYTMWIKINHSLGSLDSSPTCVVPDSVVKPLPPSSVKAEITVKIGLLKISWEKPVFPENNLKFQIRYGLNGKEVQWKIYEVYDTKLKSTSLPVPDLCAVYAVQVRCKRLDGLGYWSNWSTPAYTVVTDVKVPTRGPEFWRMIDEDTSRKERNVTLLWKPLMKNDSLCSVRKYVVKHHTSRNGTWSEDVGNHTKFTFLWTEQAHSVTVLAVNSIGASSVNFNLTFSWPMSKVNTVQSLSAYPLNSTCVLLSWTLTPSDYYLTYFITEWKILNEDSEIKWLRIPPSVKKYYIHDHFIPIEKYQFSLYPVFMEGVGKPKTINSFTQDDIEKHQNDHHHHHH
Method: (§1) His-tagged ECDs were expressed and purified for each species and used for affinity analysis. A Protein A/G chip (Xantec, Cat #PAGHC200M) was utilized in this experiment with HBS-EP +0.01% BSA as running buffer. Antibodies were diluted to 1 μg/mL in running buffer and captured to a single flow cell on the chip surface. Each species of LEPR-ECD was diluted to 1000 nM in running buffer followed by 2-fold serial dilution. Each ligand concentration was injected over all flow cells at 100 L/min for 150 seconds followed by a 600 second dissociation phase. Regeneration was performed by injecting 10 mM glycine pH1.5 for 30 seconds at 10 μL/min. Data were analyzed in Biacore T200 Evaluation Software 3.1 by flow-cell 1 reference subtraction along with 0 nM blank subtraction. Data were fit globally using a “1:1 Binding” binding model to determine the on-rate (kₐ) and off-rate (kd) for each ligand. The affinity (KD) was calculated from the binding kinetics according to the relationship KD=kₐ/kd. Data reported as mean±standard deviation of experimental replicates.

CYNO LEPR-ECD-His = biological target: T2, CYNO LEPR-ECD-His (cynomolgus monkey, UniProt Q9MYL0 22-837 (rhesus entry)); assay: SPR (Biacore T200), antibody captured on Protein A/G chip, His-tagged LEPR-ECD as analyte, 1:1 fit; mean n=4, SD 1.7E-8
T2 construct: also called cynomolgus monkey LEPR
T2 sequence: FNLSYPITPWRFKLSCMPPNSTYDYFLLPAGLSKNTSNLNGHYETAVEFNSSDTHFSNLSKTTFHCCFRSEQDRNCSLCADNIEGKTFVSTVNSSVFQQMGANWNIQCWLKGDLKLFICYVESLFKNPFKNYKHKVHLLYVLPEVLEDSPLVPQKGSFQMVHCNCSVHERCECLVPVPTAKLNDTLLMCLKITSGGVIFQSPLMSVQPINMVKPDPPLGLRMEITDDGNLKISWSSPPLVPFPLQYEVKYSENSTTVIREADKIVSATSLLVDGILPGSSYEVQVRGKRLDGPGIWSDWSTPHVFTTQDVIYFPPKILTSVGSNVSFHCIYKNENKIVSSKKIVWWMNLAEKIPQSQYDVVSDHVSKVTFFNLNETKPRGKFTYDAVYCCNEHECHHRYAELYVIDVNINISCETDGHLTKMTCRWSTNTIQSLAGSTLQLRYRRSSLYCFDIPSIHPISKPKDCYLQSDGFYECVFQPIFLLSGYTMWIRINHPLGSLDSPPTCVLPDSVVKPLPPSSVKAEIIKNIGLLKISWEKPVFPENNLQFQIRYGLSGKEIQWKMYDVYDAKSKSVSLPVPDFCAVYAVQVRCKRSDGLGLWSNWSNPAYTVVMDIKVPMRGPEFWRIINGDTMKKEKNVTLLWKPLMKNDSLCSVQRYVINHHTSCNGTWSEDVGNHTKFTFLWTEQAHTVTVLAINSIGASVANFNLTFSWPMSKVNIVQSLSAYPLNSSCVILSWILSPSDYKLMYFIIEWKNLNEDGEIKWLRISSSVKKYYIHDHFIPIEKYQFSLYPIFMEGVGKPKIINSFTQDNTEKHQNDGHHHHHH
Method: as §1

Mouse LEPR-ECD-His = biological target: T3, Mouse LEPR-ECD-His (mouse, UniProt P48356 22-839); assay: SPR (Biacore T200), antibody captured on Protein A/G chip, n = 1
T3 sequence: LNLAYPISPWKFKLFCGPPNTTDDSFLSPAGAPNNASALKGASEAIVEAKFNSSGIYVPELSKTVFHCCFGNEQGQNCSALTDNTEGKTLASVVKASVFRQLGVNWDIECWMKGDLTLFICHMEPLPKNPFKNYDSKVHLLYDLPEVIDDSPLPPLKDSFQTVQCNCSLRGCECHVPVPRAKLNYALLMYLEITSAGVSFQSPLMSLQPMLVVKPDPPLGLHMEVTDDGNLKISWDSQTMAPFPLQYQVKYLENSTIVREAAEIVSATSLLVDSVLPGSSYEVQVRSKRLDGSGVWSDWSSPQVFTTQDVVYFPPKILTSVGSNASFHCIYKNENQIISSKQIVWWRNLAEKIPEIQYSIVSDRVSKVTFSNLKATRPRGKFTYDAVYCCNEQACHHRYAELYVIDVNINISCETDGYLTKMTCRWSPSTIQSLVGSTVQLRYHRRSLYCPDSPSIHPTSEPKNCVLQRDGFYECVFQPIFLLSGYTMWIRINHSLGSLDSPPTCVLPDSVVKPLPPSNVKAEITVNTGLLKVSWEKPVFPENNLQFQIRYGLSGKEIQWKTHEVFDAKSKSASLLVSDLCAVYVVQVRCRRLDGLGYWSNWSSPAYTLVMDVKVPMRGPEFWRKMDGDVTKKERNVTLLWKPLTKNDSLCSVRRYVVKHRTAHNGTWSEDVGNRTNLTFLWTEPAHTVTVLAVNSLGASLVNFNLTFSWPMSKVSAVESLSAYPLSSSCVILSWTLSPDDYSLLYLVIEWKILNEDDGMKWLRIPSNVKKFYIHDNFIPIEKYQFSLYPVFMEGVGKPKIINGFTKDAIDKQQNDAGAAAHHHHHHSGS
Method: as §1

Kd (canine LEPR-ECD-His): 130 nM
B1: Antibody A (antibody, human IgG1, kappa, L234A L235A)
heavy: EVQLLESGGGLVQPGGSLRLSCAASGFTFSSFAMSWVRQAPGKGLEWVSAISGSGGSTYSADSVRGRFTISRDNSKNTLYLQMNSLRAEDTAVYYCAKDQGDWDFLFDYWGQGTLVTVSSASTKGPSVFPLAPSSKSTSGGTAALGCLVKDYFPEPVTVSWNSGALTSGVHTFPAVLQSSGLYSLSSVVTVPSSSLGTQTYICNVNHKPSNTKVDKRVEPKSCDKTHTCPPCPAPEAAGGPSVFLFPPKPKDTLYITREPEVTCVVVSVSHEDPEVKFNWYVDGVEVHNAKTKPREEQYNSTYRVVSVLTVLHQDWLNGKEYKCKVSNKALPAPIEKTISKAKGQPREPQVYTLPPSREEMTKNQVSLTCLVKGFYPSDIAVEWESNGQPENNYKTTPPVLDSDGSFFLYSKLTVDKSRWQQGNVFSCSVMHEALHNHYTQKSLSLSPGK
light: DIQMTQSPSFLSASVGDRVTITCRASQGISSSLAWYQQKPGKAPKLLIYTASTLQSGVPSRFSGSGSGTEFTLTISSLQPEDFATYYCQQLIYYPFTFGQGTKVEIKRTVAAPSVFIFPPSDEQLKSGTASVVCLLNNFYPREAKVQWKVDNALQSGNSQESVTEQDSKDSTYSLSSTLTLSKADYEKHKVYACEVTHQGLSSPVTKSFNRGEC
notes: IgG1 mAb

Kd (CYNO LEPR-ECD-His): 32 nM
B2: Antibody B (antibody, human IgG1, kappa, L234A L235A, V domains shown)
VH: EVQLLESGGGLVQPGGSLRLSCAASGFTFSSFAMSWVRQAPGKGLEWVSAISGSGGSTYSADSVRGRFTISRDNSKNTLYLQMNSLRAEDTAVYYCAKDQGDWDFLFDYWGQGTLVTVSS
VL: DIQMTQSPSFLSASVGDRVTITCRVSQGISSSLAWYQQKPGKAPKLLIYTASTLQSGVPSRFSGSGSGTEFTLTISSLQPEDFATYYCQQLNYYPFTFGQGTKVEIKR

B3: Antibody C (antibody, human IgG1, kappa, L234A L235A, V domains shown)
VH: EVQLLESGGGLVQPGGSLRLSCAASGFTFSSFAMSWVRQAPGKGLEWVSAISGSGGSTYSADSVRGRFTISRDNSKNTLYLQMNSLRAEDTAVYYCAKDQGDWDFLFDYWGQGTLVTVSS
VL: DIQMTQSPSFLSASVGDRVTITCRASQGISSSLAWYQQKPGKAPKLLIYTASTLQSGVPSRFSGSGSGTEFTLTISSLQPEDFATYYCQQLNYYPFSFGQGTKVEIKR
binding result (Mouse LEPR-ECD-His): no binding (tested: LEPR-ECD tested up to 1000 nM)
